From patent US20250264483A1, “IDENTIFICATION OF PROTHROMBOTIC CONDITIONS” (Sydney Local Health District, priority 2020, published 2025)

System: healthy donor platelets
Assay: Procoagulant platelet flow cytometry assay, healthy donor whole blood with VITT patient plasma
Format: cell-based, human
Details: exogenous purified human PF4 25 μg/mL, VITT positive (n=6) and negative (n=8) cases (FIG. 12A)

B1: PF4: native human PF4 purified from expired platelet concentrate (protein, UniProt P02776 32-101, looked up)
Platelet factor 4: EAEEDGDLQCLCVKTTSQVRPRHITSLEVIKAGPHCPTAQLIATLKNGRKICLDLQAPLYKKIIKKLLES
effect on flow cytometry assay results: did not alter the results
